Measurements taken from patent US20200270588A1, “GLUCOSYL TRANSFERASE POLYPEPTIDES AND METHODS OF USE” (Syngenta Participations AG, priority 2017, published 2020).

Test: LC/MS plate assay of crude E. coli extracts, Zea mays bx8 derivatives, herbicide V
Assay type: biochemical
Conditions: for activity with herbicide V: LC/MS; for activity relative to like-expressed Zea mays bx9 w/t extract: herbicide V, LC/MS peaks, estimate
Experimental: In an alternative method for assaying the various enzymes, the test glucosyl transferase enzyme is reacted with substrates exactly as above except that the assay is stopped by adding an equal volume of acetonitrile. Alternatively 50 or 100 μl samples from assay reactions are added to 500 μl ethyl acetate to stop the reaction. In this case samples are then vortexed and 400 μl of the ethyl acetate partition removed, dried down, and resuspended in 100 μl 80:20 acetonitrile/water. The formation of product gluco side and/or disappearance of substrate test herbicide is then monitored directly by LC/MS. Samples are analyzed by LC-MS using an Agilent 1290 liquid chromatography system and Thermo Q-Exactive mass spectrometer. The chromatography is achieved on a Waters Acquity C18 BEH (50×2.1 mm) 1.7 μm particle size column, using a 6 minute gradient run of Water (0.2% formic acid) and Acetonitrile. The Q-Exactive is operated in positive ionisation electrospray mode, using Full scan-AIF mode, at 35,000 resolution, between 100-800 m/z. All analytes are identified from the full scan data to within at least 5 ppm accuracy of their predicted pseudo-molecular ion [M+H]^+ m/z value. In order to obtain quantitative data standard curves are run using herbicides and herbicide glucosides synthesized as standards. Where these synthetic glucosides were not available the LC/MS assay could only be used to provide relative data.
The glucosyl transferase activities of the mutant bx8-derived polypeptides expressed in these strains were initially assayed versus herbicide V as described in Example 1. The partly purified C-terminally his tagged w/t bx8 enzyme (SEQ ID No: 2) catalyzed glucosyl transfer to herbicide V at a low rate estimated to be less than about 0.002/s at 1 mM herbicide V which, because of a relatively high background of UDP formation in the DMSO (no substrate reagent control) was difficult to quantify using the luminescence assay. Thus further assays were run by LC/MS using which technique the formation of an O-beta glucosyl glucoside of herbicide V could more easily be confirmed but only quantified in a relative sense. Thus the various derivatives of C-terminally his tagged Zea mays bx8 SEQ ID No:2 were cloned and expressed in E. coli BL21 (DE3) as described in Example 1 and assayed in plates as crude extracts, as in Example 2, but monitored by LCMS rather than the luminescence assay.
The different stereoisomer standards chromatographed distinctly on LC (FIGS. 8A-8H). By comparing the LC elution profiles of the standards with the enzyme products at the correct mass it was possible to characterize which polypeptides catalyzed the formation of which O-glucosides. Assay samples and glucoside conjugate standards are run using the identical chromatographic conditions to allow us to identify the conjugate isomer formed in the assay. In short, as would be expected for inverting glucosyl transferases all of the bx enzymes tested produced beta glucoside products (from the alpha-UDP-glucose substrate) from all herbicides tested. But there can be subtle variations between enzymes in stereochemistry of the products made at other chiral centers.

B1: SEQ ID NO: 58: zmBX8/zmBX9 hybrid polypeptide (protein)
chain: MAASCGGRVVVFPFPFQGHFNPVMRLARALHARGVGITVFHTAGARAPDPADYPADYRFVPVPVEVAPELMASEDIAAIVTALNAACEAPFRDRLSALLSAADGEAGEAGGRVRCVLTDVSWDAVLSAARGLGVPALGVMTASAATFRVYMAYRTLVDKGYLPVREERKDDAVAELPPYRVKDLLRHETCDLEEFADLLGRVIAAARLSSGLIFHTFPFIEAGTLGEIRDDMSVPVYAVAPLNKLVPTATASLHGVVQADRGCLQWLDAQRARSVLYVSFGSMAAMDPHEFVELAWGLADAGRPFVWVVRPNLIRGFESGALPDGVEDRVRGRGVVVSWAPQEEVLAHPAVGGFFTHCGWNSTVEAVSEGVPMICHPRHGDQYGNARYVCHVWKVGTEVAGDQLERGEIKAAIDRLMGGSEEGEGIRKRMNELKIAADKGIDESAGSDLTNLVHLINSY
modifications: Hybrid sequence between Zea mays Bx8 and Bx9 sequences
notes: zmBX8/zmBX9 hybrid polypeptide
  activity with herbicide V: active

B2: A246T, E256V: double mutant of Zea mays bx8, printed A248T, E256V in b223 (protein)
chain: MAASCGGRVVVFPFPFQGHFNPVMRLARALHARGVGITVFHTAGARAPDPADYPADYRFVPVPVEVAPELMASEDIAAIVTALNAACEAPFRDRLSALLSAADGEAGEAGGRVRCVLTDVSWDAVLSAARGLGVPALGVMTASAATFRVYMAYRTLVDKGYLPVREERKDDAVAELPPYRVKDLLRHETCDLEEFADLLGRVIAAARLSSGLIFHTFPFIEAGTLGEIRDDMSVPVYAVAPLNKLVPTATASLHGVVQADRGCLRWLDAQRARSVLYVSFGSMAAMDPHEFVELAWGLADAGRPFVWVVRPNLIRGFESGALPDGVEDRVRGRGVVVSWAPQEEVLAHPAVGGFFTHCGWNSTVEAVSEGVPMICHPRHGDQYGNARYVCHVWKVGTEVAGDQLERGEIKAAIDRLMGGSEEGEGIRKRMNELKIAADKGIDESAGSDLTNLVHLINSY
modifications: Mutated Zea mays Bx8 protein sequence
notes: double mutant of Zea mays bx8, printed A248T, E256V
  activity with herbicide V: detectable activity

B3: SEQ ID NO: 40: I374V, H376C double mutant of Zea mays bx8 (protein)
chain: MAASCGGRVVVFPFPFQGHFNPVMRLARALHARGVGITVFHTAGARAPDPADYPADYRFVPVPVEVAPELMASEDIAAIVTALNAACEAPFRDRLSALLSAADGEAGEAGGRVRCVLTDVSWDAVLSAARGLGVPALGVMTASAATFRVYMAYRTLVDKGYLPVREERKDDAVAELPPYRVKDLLRHETCDLEEFADLLGRVIAAARLSSGLIFHTFPFIEAGTLGEIRDDMSVPVYAVAPLNKLVPAATASLHGEVQADRGCLRWLDAQRARSVLYVSFGSMAAMDPHEFVELAWGLADAGRPFVWVVRPNLIRGFESGALPDGVEDRVRGRGVVVSWAPQEEVLAHPAVGGFFTHCGWNSTVEAVSEGVPMVCCPRHGDQYGNARYVCHVWKVGTEVAGDQLERGEIKAAIDRLMGGSEEGEGIRKRMNELKIAADKGIDESAGSDLTNLVHLINSY
modifications: Mutated Zea mays Bx8 protein sequence
  activity with herbicide V: detectable activity
  activity relative to like-expressed Zea mays bx9 w/t extract: about a third to a half
Listed as SEQ ID No 40
  activity relative to like-expressed Zea mays bx9 w/t extract: up to about half

B4: V367I, I374V: double mutant of Zea mays bx8 (protein)
chain: MAASCGGRVVVFPFPFQGHFNPVMRLARALHARGVGITVFHTAGARAPDPADYPADYRFVPVPVEVAPELMASEDIAAIVTALNAACEAPFRDRLSALLSAADGEAGEAGGRVRCVLTDVSWDAVLSAARGLGVPALGVMTASAATFRVYMAYRTLVDKGYLPVREERKDDAVAELPPYRVKDLLRHETCDLEEFADLLGRVIAAARLSSGLIFHTFPFIEAGTLGEIRDDMSVPVYAVAPLNKLVPAATASLHGEVQADRGCLRWLDAQRARSVLYVSFGSMAAMDPHEFVELAWGLADAGRPFVWVVRPNLIRGFESGALPDGVEDRVRGRGVVVSWAPQEEVLAHPAVGGFFTHCGWNSTVEAISEGVPMVCHPRHGDQYGNARYVCHVWKVGTEVAGDQLERGEIKAAIDRLMGGSEEGEGIRKRMNELKIAADKGIDESAGSDLTNLVHLINSY
modifications: Mutated Zea mays Bx8 protein sequence
  activity with herbicide V: detectable activity
